Laboratory results as given in patent US20240376189A1 (University of Pennsylvania, published 2024).

Legend:
human C5a = target: T1, human C5a (human, UniProt P01031 678-751, biotinylated in the U937/C5aR ligand blocking assay (site not stated)); experiment: SPR, scFv captured via anti-c-myc/anti-His, 5 nM human antigen as analyte, 1:1 fit
T1 construct: also called human antigen; huC5a
T1 sequence: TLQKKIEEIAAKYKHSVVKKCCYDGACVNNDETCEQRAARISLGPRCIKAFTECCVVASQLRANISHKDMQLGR

cynomolgus antigen [1] = target: T2, cynomolgus antigen (cynomolgus); experiment: SPR, scFv captured via anti-c-myc/anti-His, 60 nM cynomolgus antigen as analyte, 1:1 fit
T2 construct: also called cyno antigen; cynomolgus monkey C5a
Description: The activator was prepared by mixing 400 mM EDC (1-ethyl-3-(3-dimethylaminopropyl) carbodiimide) and 100 mM NHS (N-hydroxysuccinimide) (GE) immediately prior to injection. The CMS sensor chip was activated for 600 s with the mixture at a flow rate of 10 μL/min. Mixture of anti-c-myc and anti his antibodies in 10 mM NaAc (pH 4.5) was then injected to Fc1 and Fc2 of channel 1 to channel 8 for 600 seconds at a flow rate of 10 μL/min. The chip was deactivated by 1 M ethanolamine-HCl (GE) at a flow rate of 10 μL/min for 420 seconds.
The anti-C5a scFv was diluted to 0.5 μg/ml, the other samples were diluted to 2 μg/ml in running buffer 1×HBS-EP+ (0.01 M HEPES, 0.15 M NaCl, 0.003 M EDTA, 0.05% surfactant P20). […] Diluted TES buffer was injected into channel Fc1 at a flow rate of 10 μL/min for 40 s, diluted scFv was injected into channel Fc2 at a flow rate of 10 μL/min for 40 s. […] 10 mM glycine pH 1.5 as regeneration buffer was injected following every dissociation phase. The chip was regenerated with 10 mM glycine pH 1.5.
The sensorgrams for reference channel Fc1 and buffer channel were subtracted from the test sensorgrams. Data were fitted by 1:1 kinetic binding model. Molecular weight of 8.4 kDa was used to calculate the molar concentration of the cyno antigen.

cynomolgus antigen [2] = target: T2, cynomolgus antigen; experiment: affinity-ranking ELISA: cynomolgus antigen coated on the plate, normalized scFv periplasmic extract in 3-fold dilutions from 100 nM, anti-c-myc-HRP, OD450
Description: The affinity ranking ELISA was carried out as following: scFv concentrations in PEs were measured by Quantification ELISA using purified scFv sample as a standard. Briefly, anti-His-antibody (Genscript-A00186) were coated on the plates in coating buffer PBS at pH7.4 overnight at 4° C. The next day, plates were blocked with casein in PBS at pH7.4 for 1 hour at 25° C. ScFv containing PEs were diluted 3 fold serial dilutions and then added to the plates. A purified scFv standard sample with known concentration was used as a standard. After incubation at 25° C. for 1 hour and washing 3 times with PBS-T, anti-c-myc-HRP (Bethyl-A190-104P) was added to the wells followed by incubation for 1 hour at 25° C. HRP activity was detected with TMB substrate and the reaction was quenched with 2M HCl. Plates were read at 450 nm.
The next day, plates were blocked with casein in PBS for 1 hour at 25° C. Normalized scFv containing PEs were diluted using 3 fold serial dilutions starting at 100 nM, added to the plates and incubated at 25° C. for 1 hour. After washing, anti-c-myc-HRP was added to the wells followed by incubation for 1 hour at 25° C. HRP activity was detected with TMB substrate and the reaction was quenched with 2M HCl. Plates were read at 450 nm. Data were fitted into one-site binding equation using GraphPad Prism 5 software.

B1: 13B7 (scFv, V domains shown)
VH: QVQLVQSGAEVKKPGSSVKVSCKASGYTFTDHIIHWMRQAPGQGLEWMGYIYPREGWTNYNENFKGRVTITADKSTSTAYMELSSLRSEDTAVYYCARERNLEYFDYWGQGTTVTVSS
VL: DIVLTQSPASLAVSPGQRATITCKASQSVDYEGFNYMNWYQQKPGQPPKLLIYAASNLDSGVPARFSGSGSGTDFTLTINPVEAEDTANYYCQQSVEDPHTFGGGTKVEIK
notes: Combination mutant scFv
koff (human C5a): < 1e-05 s⁻¹ | koff (cynomolgus antigen [1]): 0.000252 s⁻¹ | EC50 (read off the curve) (cynomolgus antigen [2]): ~6 nM

B2: 16C2 (scFv, V domains shown)
VH: QVQLVQSGAEVKKPGSSVKVSCKASGYTFTDHIIHWMRQAPGQGLEWMGYIYPREGWTNYNENFKGRVTITADKSTSTAYMELSSLRSEDTAVYYCARERNLEYFDYWGQGTTVTVSS
VL: DIVLTQSPASLAVSPGQRATITCKASQSVDYEGFNYMNWYQQKPGQPPKLLIYATSNLDSGVPARFSGSGSGTDFTLTINPVEAEDTANYYCQQSVEDPHTFGGGTKVEIK
notes: Combination mutant scFv
koff (human C5a): 2.58e-05 s⁻¹ | koff (cynomolgus antigen [1]): 0.00176 s⁻¹

B3: 2H8E10 (scFv, V domains shown)
VH: QVQLVQSGAEVKKPGSSVKVSCKASGYTFTDHIIHWMRQAPGQGLEWMGYIYPREGWTNYNENFKGRVTITADKSTSTAYMELSSLRSEDTAVYYCARERNLEYFDYWGQGTTVTVSS
VL: DIVLTQSPASLAVSPGQRATITCKASQSVDYEGDNYMNWYQQKPGQPPKLLIYAASNLDSGVPARFSGSGSGTDFTLTINPVEAEDTANYYCQQSNEDPHTFGGGTKVEIK
notes: Combination mutant scFv
koff (human C5a): 1.82e-05 s⁻¹ | koff (cynomolgus antigen [1]): 0.00258 s⁻¹

B4: 10F5 (scFv, V domains shown)
VH: QVQLVQSGAEVKKPGSSVKVSCKASGYTFTDHIIHWMRQAPGQGLEWMGYIYPREGWTNYNENFKGRVTITADKSTSTAYMELSSLRSEDTAVYYCARERNLEYFDYWGQGTTVTVSS
VL: DIVLTQSPASLAVSPGQRATITCKASQSVDYEGDNYMNWYQQKPGQPPKLLIYATSNLDSGVPARFSGSGSGTDFTLTINPVEAEDTANYYCQQSLEDPHTFGGGTKVEIK
notes: Combination mutant scFv
koff (human C5a): < 1e-05 s⁻¹ | koff (cynomolgus antigen [1]): 0.00202 s⁻¹

B5: 16F10 (scFv, V domains shown)
VH: QVQLVQSGAEVKKPGSSVKVSCKASGYTFTDHIIHWMRQAPGQGLEWMGYIYPREGWTNYNENFKGRVTITADKSTSTAYMELSSLRSEDTAVYYCARERNLEYFDYWGQGTTVTVSS
VL: DIVLTQSPASLAVSPGQRATITCKASQSVDFEGFNYMNWYQQKPGQPPKLLIYAASNLDSGVPARFSGSGSGTDFTLTINPVEAEDTANYYCQQSVEDPHTFGGGTKVEIK
notes: Combination mutant scFv
koff (human C5a): 1.14e-05 s⁻¹ | koff (cynomolgus antigen [1]): 0.000155 s⁻¹ | EC50 (read off the curve) (cynomolgus antigen [2]): ~4 nM

B6: 18D3 (scFv, V domains shown)
VH: QVQLVQSGAEVKKPGSSVKVSCKASGYTFTDHIIHWMRQAPGQGLEWMGYIYPREGWTNYNENFKGRVTITADKSTSTAYMELSSLRSEDTAVYYCARERNLEYFDYWGQGTTVTVSS
VL: DIVLTQSPASLAVSPGQRATITCKASQSVDYEGDNYMNWYQQKPGQPPKLLIYATSNLDSGVPARFSGSGSGTDFTLTINPVEAEDTANYYCQQSVEDPHTFGGGTKVEIK
notes: Combination mutant scFv
koff (human C5a): 2.98e-05 s⁻¹ | koff (cynomolgus antigen [1]): 0.00418 s⁻¹

B7: 5G11 (scFv, V domains shown)
VH: QVQLVQSGAEVKKPGSSVKVSCKASGYTFTDHIIHWMRQAPGQGLEWMGYIYPREGWTNYNENFKGRVTITADKSTSTAYMELSSLRSEDTAVYYCARERNLEYFDYWGQGTTVTVSS
VL: DIVLTQSPASLAVSPGQRATITCKASQSVDYEGFNYMNWYQQKPGQPPKLLIYAASNLDSGVPARFSGSGSGTDFTLTINPVEAEDTANYYCQQSLEDPHTFGGGTKVEIK
notes: Combination mutant scFv
koff (human C5a): < 1e-05 s⁻¹ | koff (cynomolgus antigen [1]): 0.000279 s⁻¹

B8: 8H8 (scFv, V domains shown)
VH: QVQLVQSGAEVKKPGSSVKVSCKASGYTFTDHIIHWMRQAPGQGLEWMGYIYPREGWTNYNENFKGRVTITADKSTSTAYMELSSLRSEDTAVYYCARERNLEYFDYWGQGTTVTVSS
VL: DIVLTQSPASLAVSPGQRATITCKASQSVDYEGFNYMNWYQQKPGQPPKLLIYATSNLDSGVPARFSGSGSGTDFTLTINPVEAEDTANYYCQQSLEDPHTFGGGTKVEIK
notes: Combination mutant scFv
koff (human C5a): 2.69e-05 s⁻¹ | koff (cynomolgus antigen [1]): 0.000927 s⁻¹

B9: 19D2 (scFv, V domains shown)
VH: QVQLVQSGAEVKKPGSSVKVSCKASGYTFTDHIIHWMRQAPGQGLEWMGYIYPREGWTNYNENFKGRVTITADKSTSTAYMELSSLRSEDTAVYYCARERNLEYFDYWGQGTTVTVSS
VL: DIVLTQSPASLAVSPGQRATITCKASQSVDFEGDNYMNWYQQKPGQPPKLLIYATSNLDSGVPARFSGSGSGTDFTLTINPVEAEDTANYYCQQSLEDPHTFGGGTKVEIK
notes: Combination mutant scFv
koff (human C5a): < 1e-05 s⁻¹ | koff (cynomolgus antigen [1]): 0.00102 s⁻¹

B10: 8C1 (scFv, V domains shown)
VH: QVQLVQSGAEVKKPGSSVKVSCKASGYTFTDHIIHWMRQAPGQGLEWMGYIYPREGWTNYNENFKGRVTITADKSTSTAYMELSSLRSEDTAVYYCARERNLEYFDYWGQGTTVTVSS
VL: DIVLTQSPASLAVSPGQRATITCKASQSVDFEGFNYMNWYQQKPGQPPKLLIYAASNLDSGVPARFSGSGSGTDFTLTINPVEAEDTANYYCQQSLEDPHTFGGGTKVEIK
notes: Combination mutant scFv
koff (human C5a): < 1e-05 s⁻¹ | koff (cynomolgus antigen [1]): 0.000481 s⁻¹

B11: 16D10 scFv (scFv, V domains shown)
VH: QVQLVQSGAEVKKPGSSVKVSCKASGYTFTDHIIHWMRQAPGQGLEWMGYIYPREGWTNYNENFKGRVTITADKSTSTAYMELSSLRSEDTAVYYCARERNLEYFDYWGQGTTVTVSS
VL: DIVLTQSPASLAVSPGQRATITCKASQSVDYEGFNYMNWYQQKPGQPPKLLIYAASNLDSGVPARFSGSGSGTDFTLTINPVEAEDTANYYCQQSNEDPYTFGGGTKVEIK
koff (human C5a): 2.34e-05 s⁻¹ | koff (cynomolgus antigen [1]): 0.000465 s⁻¹ | EC50 (read off the curve) (cynomolgus antigen [2]): ~20 nM

B12: 13B9 (scFv, V domains shown)
VH: QVQLVQSGAEVKKPGSSVKVSCKASGYTFTDHIIHWMRQAPGQGLEWMGYIYPREGWTNYNENFKGRVTITADKSTSTAYMELSSLRSEDTAVYYCARERNLEYFDYWGQGTTVTVSS
VL: DIVLTQSPASLAVSPGQRATITCKASQSVDFEGFNYMNWYQQKPGQPPKLLIYAASNLDSGVPARFSGSGSGTDFTLTINPVEAEDTANYYCQQSNEDPHTFGGGTKVEIK
notes: Combination mutant scFv
koff (human C5a): 2.2e-05 s⁻¹ | koff (cynomolgus antigen [1]): 0.000327 s⁻¹ | EC50 (read off the curve) (cynomolgus antigen [2]): ~10 nM

B13: 17D2 (scFv, V domains shown)
VH: QVQLVQSGAEVKKPGSSVKVSCKASGYTFTDHIIHWMRQAPGQGLEWMGYIYPREGWTNYNENFKGRVTITADKSTSTAYMELSSLRSEDTAVYYCARERNLEYFDYWGQGTTVTVSS
VL: DIVLTQSPASLAVSPGQRATITCKASQSVDFEGDNYMNWYQQKPGQPPKLLIYATSNLDSGVPARFSGSGSGTDFTLTINPVEAEDTANYYCQQSVEDPHTFGGGTKVEIK
notes: Combination mutant scFv
koff (human C5a): 1.89e-05 s⁻¹ | koff (cynomolgus antigen [1]): 0.0019 s⁻¹

B14: 11A11 (scFv, V domains shown)
VH: QVQLVQSGAEVKKPGSSVKVSCKASGYTFTDHIIHWMRQAPGQGLEWMGYIYPREGWTNYNENFKGRVTITADKSTSTAYMELSSLRSEDTAVYYCARERNLEYFDYWGQGTTVTVSS
VL: DIVLTQSPASLAVSPGQRATITCKASQSVDFEGFNYMNWYQQKPGQPPKLLIYATSNLDSGVPARFSGSGSGTDFTLTINPVEAEDTANYYCQQSVEDPHTFGGGTKVEIK
notes: Combination mutant scFv
koff (human C5a): < 1e-05 s⁻¹ | koff (cynomolgus antigen [1]): 0.000786 s⁻¹

B15: 18F5 (scFv, V domains shown)
VH: QVQLVQSGAEVKKPGSSVKVSCKASGYTFTDHIIHWMRQAPGQGLEWMGYIYPREGFTNYNENFKGRVTITADKSTSTAYMELSSLRSEDTAVYYCARERNLEYFDYWGQGTTVTVSS
VL: DIVLTQSPASLAVSPGQRATITCKASQSVDFEGFNYMNWYQQKPGQPPKLLIYAASNLDSGVPARFSGSGSGTDFTLTINPVEAEDTANYYCQQSVEDPHTFGGGTKVEIK
notes: Combination mutant scFv
koff (human C5a): 3.03e-05 s⁻¹ | koff (cynomolgus antigen [1]): 0.000319 s⁻¹ | EC50 (read off the curve) (cynomolgus antigen [2]): ~8 nM
